In patent US20110207628A1 one finds Binding to tubby-N (binding specificity of clonal phage vs. control phage), Binding to tubby-F (binding specificity to FLAG-tubby-F vs. to GFP-FLAG) and Binding activity (pfu ratio of clonal phage binding to immobilized Axl-Fc versus blank) data, which are given here for 4 substances.

The target in experiment [1] is tubby-N (N-terminus of mouse tubby, 1M-242P), GST-free (mouse) (UniProt P50586). The experiment in a line: clonal phage on immobilized tubby-N, plaque assay.
The target in experiment [2] is FLAG-tubby-F (full-length mouse tubby with N-terminal FLAG tag) (mouse) (UniProt P50586). The experiment in a line: clonal phage on immobilized FLAG-tubby-F, plaque assay.
Experiment [3] addresses Axl-Fc (Axl extracellular domain fused to human IgG1 Fc fragment) (human). In words: clonal phage on immobilized Axl-Fc, plaque assay.

Chain of FLAG-tubby-F (full-length mouse tubby with N-terminal FLAG tag) (mouse) (P50586 other isoform, or with tags, fused parts or gaps): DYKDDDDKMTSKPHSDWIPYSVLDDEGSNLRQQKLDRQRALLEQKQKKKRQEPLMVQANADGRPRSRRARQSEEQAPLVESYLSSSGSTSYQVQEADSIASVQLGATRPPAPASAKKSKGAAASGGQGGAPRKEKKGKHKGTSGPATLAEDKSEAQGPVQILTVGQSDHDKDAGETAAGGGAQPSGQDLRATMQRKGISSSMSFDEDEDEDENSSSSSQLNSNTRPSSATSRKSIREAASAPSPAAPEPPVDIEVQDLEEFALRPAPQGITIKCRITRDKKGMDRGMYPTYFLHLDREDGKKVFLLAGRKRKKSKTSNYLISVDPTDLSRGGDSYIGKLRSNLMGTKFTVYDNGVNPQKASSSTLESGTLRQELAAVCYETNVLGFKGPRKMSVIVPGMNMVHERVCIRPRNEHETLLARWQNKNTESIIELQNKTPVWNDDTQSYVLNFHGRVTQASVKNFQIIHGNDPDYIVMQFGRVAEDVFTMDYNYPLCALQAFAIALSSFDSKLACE
Chain of tubby-N (N-terminus of mouse tubby, 1M-242P), GST-free (mouse) (P50586 1-242): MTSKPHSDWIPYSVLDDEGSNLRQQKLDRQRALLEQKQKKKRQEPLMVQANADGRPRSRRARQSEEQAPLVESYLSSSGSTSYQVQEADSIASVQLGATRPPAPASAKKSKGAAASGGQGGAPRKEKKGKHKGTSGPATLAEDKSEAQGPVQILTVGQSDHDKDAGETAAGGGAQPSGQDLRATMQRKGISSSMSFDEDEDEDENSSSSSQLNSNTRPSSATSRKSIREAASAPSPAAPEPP

With “High mobility group box 2-like 1 (Hmgb211) 170K-305G, phage clone”, the Binding to tubby-N (binding specificity of clonal phage vs. control phage) in experiment [1] is 29.8 X (fold). In experiment [2], the Binding to tubby-F (binding specificity to FLAG-tubby-F vs. to GFP-FLAG) was 5 X (fold). Consider “PH180: Lectin, galactose binding, soluble 3 (Lgals3) 131Y-264I, phage clone (from UniProt P16110 131-264)”, for which, in experiment [3], the Binding activity (pfu ratio of clonal phage binding to immobilized Axl-Fc versus blank) is 1380 X (fold). In the case of “Paf1/RNA polymerase II complex component (Rtf1) 69N-186K, phage clone (from UniProt A2AQ19 69-186)”, the Binding to tubby-F (binding specificity to FLAG-tubby-F vs. to GFP-FLAG) in experiment [2] is 6.2 X (fold). Regarding “Unknown protein encoded by Chromosome X Genomic contig, alternate assembly (NW_001035178, 7824017-7824523 bp), phage clone”, the Binding to tubby-N (binding specificity of clonal phage vs. control phage) in experiment [1] was 40.1 X (fold). For the same substance, the Binding to tubby-F (binding specificity to FLAG-tubby-F vs. to GFP-FLAG) in experiment [2] was 3.1 X (fold).
